The source of these data is patent US20230414709A1 (TRUSTEES OF COLUMBIA UNIVERSITY IN THE CITY OF NEW YORK, published 2023).

B1: NGAL mutant A1 (ligand)
chain: QDSTSDLIPAPPLSSVPLQQNFQDNQFQGKWYVVGLAGNAILREDKDPQKMYATIYELKEDKSYNVTSVLFRKKKCDYWIRTFVPGCQPGEFTLGNIKSYPGLTSYLVRVVSTNYNQHAMVFFKKVSQNREYFKITLYGRTKELTSELKENFIRFSKSLGLPENHIVFPVPIDQCIDG
B2: NGAL mutant A2 (ligand)
chain: QDSTSDLIPAPPLSSVPLQQNFQDNQFQGKWYVVGLAGNAILREDKDPQKMYATIYELKEDKSYNVTSVLFRKKKCDYWIRTFVPGCQPGEFTLGNIKSYPGLTSYLVRVVSTNYNQHAMVFFKKVSQNREYFKITLYGQTQELTSELKENFIRFSKSLGLPENHIVFPVPIDQCIDG
B3: NGAL mutant K1 (ligand)
chain: QDSTSDLIPAPPLSSVPLQQNFQDNQFQGKWYVVGLAGNAILREDEDPQKMYATIYELQEDKSYNVTSVLFRKKKCDYWIRTFVPGCQPGEFTLGNIQSYPGLTSYLVRVVSTNYNQFAMVFFKKVSQNQEYFKITLYGRTKELTSELQENFIRFSKSLGLPENNIVFPVPIDQCIDG
B4: NGAL mutant H1 (ligand)
chain: QDSTSDLIPAPPLSKVPLQQNFQDNQFQGKWYVVGLAGNAILREDKDPQKMYATIYELKEDKSYNVTSVLFRKKKCDYWIRTFVPGCQPGEFTLGNIKSYPGLTSYLVRVVSTNYNQHAMVFFKKVSQNREYFKITLYGRTKELTSELKENFIRFSKSLGLPENNIVFPVPIDQCIDG
B5: NGAL mutant I1 (ligand)
chain: QDSTSDLIPAPPLSSVPLQQNFQDNQFQGKWYVVGLAGNAILREDKDPQKMYATIYELKEDKSYNVTSVLFRDDGCDYWIRTFVPGCQPGEFTLGNIKSYPGLTSYLVRVVSTNYNQHAMVFFKKVSQNQEYFKITLYGRTKELTSELKENFIRFSKSLGLPENHIVFPVPIDQCIDG
B6: NGAL mutant K5 (ligand)
chain: QDSTSDLIPAPPLSSVPLQQNFQDNQFQGKWYVVGLAGNAILREDEDPQKMYATIYELKEDKSYNVTSVLFRKKKCDYWIRTFVPGCQPGEFTLGNIQSYPGLTSYLVRVVSTNYNQFAMVFFKKVSQNQEYFKITLYGRTKELTSELQENFIRFSKSLGLPENNIVFPVPIDQCIDG
B7: NGAL mutant F4 (ligand)
chain: QDSTSDLIPAPPLSSVPLQQNFQDNQFQGKWYVVGLAGNAILREDEDPQKMYATIYELKEDKSYNVTSVLFRKKKCDYWIRTFVPGCQPGEFTLGNIKSYPGLTSYLVRVVSTNYNQHAMVFFKKVSQNREYFKITLYGRTKELTSELQENFIRFSKSLGLPENHIVFPVPIDQCIDG
B8: NGAL mutant I3 (ligand)
chain: QDSTSDLIPAPPLSKVPLQQNFQDNQFQGKWYVVGLAGNAILREDKDPQKMYATIYELKEDGSYNVTSVLFRDDGCDYWIRTFVPGCQPGEFTLGNIQSYPGLTSYLVRVVSTNYNQHAMVFFKKVSQNREYFKITLYGRTKELTSELKENFIRFSKSLGLPENHIVFPVPIDQCIDG
B9: NGAL mutant C5 (ligand)
chain: QDSTSDLIPAPPLSKVPLQQNFQDNQFQGKWYVVGLAGNAILREDKDPQKMYATIYELKEDKSYNVTSVLFQKKKCDYWIRTFVPGCQPGEFTLGNIKSYPGLTSYLVRVVSTNYNQHAMVFFKKVSQNREYFKITLYGRTKELTSELKENFIRFSQSLGLPENHIVFPVPIDQCIDG
B10: NGAL mutant H3 (ligand)
chain: QDSTSDLIPAPPLSKVPLQQNFQDNQFQGKWYVVGLAGNAILREDKDPQKMYATIYELKEDKSYNVTSVLFRKKKCDYWIRTFVPGCQPGEFTLGNIKSYPGLTSYLVRVVSTNYNQFAMVFFKKVSQNREYFKITLYGRTKELTSELQENFIRFSKSLGLPENNIVFPVPIDQCIDG
B11: NGAL mutant G3 (ligand)
chain: QDSTSDLIPAPPLSKVPLQQNFQDNQFQGKWYVVGLAGNAILREDKDPQKMYATIYELKEDKSYNVTSVLFRKKKCDYWIRTFVPGCQPGEFTLGNIKSYPGLTSYLVRVVSTNYNQHAMVFFKKVSQNREYFKITLYGRTKELTSELKENFIRFSQSLGLPENHIVFPVPIDQCIDG
B12: NGAL mutant I5 (ligand)
chain: QDSTSDLIPAPPLSSVPLQQNFQDNQFQGKWYVVGLAGNAILREDKDPQKMYATIYELKEDGSYNVTSVLFRDDGCDYWIRTFVPGCQPGEFTLGNIKSYPGLTSYLVRVVSTNYNQHAMVFFKKVSQNQEYFKITLYGRTKELTSELKENFIRFSKSLGLPENHIVFPVPIDQCIDG
B13: NGAL mutant H5 (ligand)
chain: QDSTSDLIPAPPLSSVPLQQNFQDNQFQGKWYVVGLAGNAILREDKDPQKMYATIYELKEDKSYNVTSVLFRKKKCDYWIRTFVPGCQPGEFTLGNIQSYPGLTSYLVRVVSTNYNQHAMVFFKKVSQNREYFKITLYGRTKELTSELKENFIRFSKSLGLPENNIVFPVPIDQCIDG
B14: NGAL mutant K2 (ligand)
chain: QDSTSDLIPAPPLSSVPLQQNFQDNQFQGKWYVVGLAGNAILREDKDPQKMYATIYELKEDKSYNVTSVLFRDDGCDYWIRTFVPGCQPGEFTLGNIQSYPGLTSYLVRVVSTNYNQFAMVFFKKVSQNQEYFKITLYGRTKELTSELQENFIRFSKSLGLPENNIVFPVPIDQCIDG
B15: NGAL mutant D2 (ligand)
chain: QDSTSDLIPAPPLSKVPLQQNFQDNQFQGKWYVVGLAGNAILREDKDPQKMYATIYELKEDGSYNVTSVLFRKKKCDYWIRTFVPGCQPGEFTLGNIKSYPGLTSYLVRVVSTNYNQHAMVFFKKVSQNREYFKITLYGRTKELTSELKENFIRFSKSLGLPENHIVFPVPIDQCIDG
B16: NGAL mutant A3 (ligand)
chain: QDSTSDLIPAPPLSKVPLQQNFQDNQFQGKWYVVGLAGNAILQEDKDPQKMYATIYELKEDKSYNVTSVLFRKKKCDYWIRTFVPGCQPGEFTLGNIKSYPGLTSYLVRVVSTNYNQHAMVFFKKVSQNREYFKITLYGRTKELTSELKENFIRFSKSLGLPENHIVFPVPIDQCIDG
B17: NGAL mutant B1 (ligand)
chain: QDSTSDLIPAPPLSKVPLQQNFQDNQFQGKWYVVGLAGNAILREDKDPQKMYATIYELKEDKSYNVTSVLFRKKKCDYWIRTFVPGCQPGEFTLGNIQSYPGLTSYLVRVVSTNYNQFAMVFFKKVSQNREYFKITLYGRTKELTSELKENFIRFSKSLGLPENNIVFPVPIDQCIDG
B18: NGAL mutant F2 (ligand)
chain: QDSTSDLIPAPPLSKVPLQQNFQDNQFQGKWYVVGLAGNAILREDEDPQKMYATIYELQEDKSYNVTSVLFRKKKCDYWIRTFVPGCQPGEFTLGNIKSYPGLTSYLVRVVSTNYNQHAMVFFKKVSQNREYFKITLYGRTKELTSELKENFIRFSKSLGLPENHIVFPVPIDQCIDG
B19: NGAL mutant H2 (ligand)
chain: QDSTSDLIPAPPLSSVPLQQNFQDNQFQGKWYVVGLAGNAILREDKDPQKMYATIYELKEDKSYNVTSVLFRKKKCDYWIRTFVPGCQPGEFTLGNIQSYPGLTSYLVRVVSTNYNQFAMVFFKKVSQNQEYFKITLYGRTKELTSELQENFIRFSKSLGLPENNIVFPVPIDQCIDG
B20: NGAL mutant G1 (ligand)
chain: QDSTSDLIPAPPLSSVPLQQNFQDNQFQGKWYVVGLAGNAILQEDKDPQKMYATIYELKEDKSYNVTSVLFRKKKCDYWIRTFVPGCQPGEFTLGNIKSYPGLTSYLVRVVSTNYNQHAMVFFKKVSQNREYFKITLYGRTKELTSELQENFIRFSKSLGLPENHIVFPVPIDQCIDG
B21: NGAL mutant F5 (ligand)
chain: QDSTSDLIPAPPLSSVPLQQNFQDNQFQGKWYVVGLAGNAILREDEDPQKMYATIYELKEDKSYNVTSVLFRKKKCDYWIRTFVPGCQPGEFTLGNIKSYPGLTSYLVRVVSTNYNQHAMVFFKKVSQNREYFKITLYGRTKELTSELQENFIRFSKSLGLPENNIVFPVPIDQCIDG
B22: NGAL mutant F1 (ligand)
chain: QDSTSDLIPAPPLSSVPLQQNFQDNQFQGKWYVVGLAGNAILREDEDPQKMYATIYELQEDKSYNVTSVLFRKKKCDYWIRTFVPGCQPGEFTLGNIKSYPGLTSYLVRVVSTNYNQHAMVFFKKVSQNREYFKITLYGRTKELTSELKENFIRFSKSLGLPENHIVFPVPIDQCIDG
B23: NGAL mutant D1 (ligand)
chain: QDSTSDLIPAPPLSKVPLQQNFQDNQFQGKWYVVGLAGNAILREDKDPQKMYATIYELKEDKSYNVTSVLFRDDGCDYWIRTFVPGCQPGEFTLGNIKSYPGLTSYLVRVVSTNYNQHAMVFFKKVSQNREYFKITLYGRTKELTSELKENFIRFSKSLGLPENHIVFPVPIDQCIDG

mouse megalin, sequence (A2ARV4 26-4660 limits assumed): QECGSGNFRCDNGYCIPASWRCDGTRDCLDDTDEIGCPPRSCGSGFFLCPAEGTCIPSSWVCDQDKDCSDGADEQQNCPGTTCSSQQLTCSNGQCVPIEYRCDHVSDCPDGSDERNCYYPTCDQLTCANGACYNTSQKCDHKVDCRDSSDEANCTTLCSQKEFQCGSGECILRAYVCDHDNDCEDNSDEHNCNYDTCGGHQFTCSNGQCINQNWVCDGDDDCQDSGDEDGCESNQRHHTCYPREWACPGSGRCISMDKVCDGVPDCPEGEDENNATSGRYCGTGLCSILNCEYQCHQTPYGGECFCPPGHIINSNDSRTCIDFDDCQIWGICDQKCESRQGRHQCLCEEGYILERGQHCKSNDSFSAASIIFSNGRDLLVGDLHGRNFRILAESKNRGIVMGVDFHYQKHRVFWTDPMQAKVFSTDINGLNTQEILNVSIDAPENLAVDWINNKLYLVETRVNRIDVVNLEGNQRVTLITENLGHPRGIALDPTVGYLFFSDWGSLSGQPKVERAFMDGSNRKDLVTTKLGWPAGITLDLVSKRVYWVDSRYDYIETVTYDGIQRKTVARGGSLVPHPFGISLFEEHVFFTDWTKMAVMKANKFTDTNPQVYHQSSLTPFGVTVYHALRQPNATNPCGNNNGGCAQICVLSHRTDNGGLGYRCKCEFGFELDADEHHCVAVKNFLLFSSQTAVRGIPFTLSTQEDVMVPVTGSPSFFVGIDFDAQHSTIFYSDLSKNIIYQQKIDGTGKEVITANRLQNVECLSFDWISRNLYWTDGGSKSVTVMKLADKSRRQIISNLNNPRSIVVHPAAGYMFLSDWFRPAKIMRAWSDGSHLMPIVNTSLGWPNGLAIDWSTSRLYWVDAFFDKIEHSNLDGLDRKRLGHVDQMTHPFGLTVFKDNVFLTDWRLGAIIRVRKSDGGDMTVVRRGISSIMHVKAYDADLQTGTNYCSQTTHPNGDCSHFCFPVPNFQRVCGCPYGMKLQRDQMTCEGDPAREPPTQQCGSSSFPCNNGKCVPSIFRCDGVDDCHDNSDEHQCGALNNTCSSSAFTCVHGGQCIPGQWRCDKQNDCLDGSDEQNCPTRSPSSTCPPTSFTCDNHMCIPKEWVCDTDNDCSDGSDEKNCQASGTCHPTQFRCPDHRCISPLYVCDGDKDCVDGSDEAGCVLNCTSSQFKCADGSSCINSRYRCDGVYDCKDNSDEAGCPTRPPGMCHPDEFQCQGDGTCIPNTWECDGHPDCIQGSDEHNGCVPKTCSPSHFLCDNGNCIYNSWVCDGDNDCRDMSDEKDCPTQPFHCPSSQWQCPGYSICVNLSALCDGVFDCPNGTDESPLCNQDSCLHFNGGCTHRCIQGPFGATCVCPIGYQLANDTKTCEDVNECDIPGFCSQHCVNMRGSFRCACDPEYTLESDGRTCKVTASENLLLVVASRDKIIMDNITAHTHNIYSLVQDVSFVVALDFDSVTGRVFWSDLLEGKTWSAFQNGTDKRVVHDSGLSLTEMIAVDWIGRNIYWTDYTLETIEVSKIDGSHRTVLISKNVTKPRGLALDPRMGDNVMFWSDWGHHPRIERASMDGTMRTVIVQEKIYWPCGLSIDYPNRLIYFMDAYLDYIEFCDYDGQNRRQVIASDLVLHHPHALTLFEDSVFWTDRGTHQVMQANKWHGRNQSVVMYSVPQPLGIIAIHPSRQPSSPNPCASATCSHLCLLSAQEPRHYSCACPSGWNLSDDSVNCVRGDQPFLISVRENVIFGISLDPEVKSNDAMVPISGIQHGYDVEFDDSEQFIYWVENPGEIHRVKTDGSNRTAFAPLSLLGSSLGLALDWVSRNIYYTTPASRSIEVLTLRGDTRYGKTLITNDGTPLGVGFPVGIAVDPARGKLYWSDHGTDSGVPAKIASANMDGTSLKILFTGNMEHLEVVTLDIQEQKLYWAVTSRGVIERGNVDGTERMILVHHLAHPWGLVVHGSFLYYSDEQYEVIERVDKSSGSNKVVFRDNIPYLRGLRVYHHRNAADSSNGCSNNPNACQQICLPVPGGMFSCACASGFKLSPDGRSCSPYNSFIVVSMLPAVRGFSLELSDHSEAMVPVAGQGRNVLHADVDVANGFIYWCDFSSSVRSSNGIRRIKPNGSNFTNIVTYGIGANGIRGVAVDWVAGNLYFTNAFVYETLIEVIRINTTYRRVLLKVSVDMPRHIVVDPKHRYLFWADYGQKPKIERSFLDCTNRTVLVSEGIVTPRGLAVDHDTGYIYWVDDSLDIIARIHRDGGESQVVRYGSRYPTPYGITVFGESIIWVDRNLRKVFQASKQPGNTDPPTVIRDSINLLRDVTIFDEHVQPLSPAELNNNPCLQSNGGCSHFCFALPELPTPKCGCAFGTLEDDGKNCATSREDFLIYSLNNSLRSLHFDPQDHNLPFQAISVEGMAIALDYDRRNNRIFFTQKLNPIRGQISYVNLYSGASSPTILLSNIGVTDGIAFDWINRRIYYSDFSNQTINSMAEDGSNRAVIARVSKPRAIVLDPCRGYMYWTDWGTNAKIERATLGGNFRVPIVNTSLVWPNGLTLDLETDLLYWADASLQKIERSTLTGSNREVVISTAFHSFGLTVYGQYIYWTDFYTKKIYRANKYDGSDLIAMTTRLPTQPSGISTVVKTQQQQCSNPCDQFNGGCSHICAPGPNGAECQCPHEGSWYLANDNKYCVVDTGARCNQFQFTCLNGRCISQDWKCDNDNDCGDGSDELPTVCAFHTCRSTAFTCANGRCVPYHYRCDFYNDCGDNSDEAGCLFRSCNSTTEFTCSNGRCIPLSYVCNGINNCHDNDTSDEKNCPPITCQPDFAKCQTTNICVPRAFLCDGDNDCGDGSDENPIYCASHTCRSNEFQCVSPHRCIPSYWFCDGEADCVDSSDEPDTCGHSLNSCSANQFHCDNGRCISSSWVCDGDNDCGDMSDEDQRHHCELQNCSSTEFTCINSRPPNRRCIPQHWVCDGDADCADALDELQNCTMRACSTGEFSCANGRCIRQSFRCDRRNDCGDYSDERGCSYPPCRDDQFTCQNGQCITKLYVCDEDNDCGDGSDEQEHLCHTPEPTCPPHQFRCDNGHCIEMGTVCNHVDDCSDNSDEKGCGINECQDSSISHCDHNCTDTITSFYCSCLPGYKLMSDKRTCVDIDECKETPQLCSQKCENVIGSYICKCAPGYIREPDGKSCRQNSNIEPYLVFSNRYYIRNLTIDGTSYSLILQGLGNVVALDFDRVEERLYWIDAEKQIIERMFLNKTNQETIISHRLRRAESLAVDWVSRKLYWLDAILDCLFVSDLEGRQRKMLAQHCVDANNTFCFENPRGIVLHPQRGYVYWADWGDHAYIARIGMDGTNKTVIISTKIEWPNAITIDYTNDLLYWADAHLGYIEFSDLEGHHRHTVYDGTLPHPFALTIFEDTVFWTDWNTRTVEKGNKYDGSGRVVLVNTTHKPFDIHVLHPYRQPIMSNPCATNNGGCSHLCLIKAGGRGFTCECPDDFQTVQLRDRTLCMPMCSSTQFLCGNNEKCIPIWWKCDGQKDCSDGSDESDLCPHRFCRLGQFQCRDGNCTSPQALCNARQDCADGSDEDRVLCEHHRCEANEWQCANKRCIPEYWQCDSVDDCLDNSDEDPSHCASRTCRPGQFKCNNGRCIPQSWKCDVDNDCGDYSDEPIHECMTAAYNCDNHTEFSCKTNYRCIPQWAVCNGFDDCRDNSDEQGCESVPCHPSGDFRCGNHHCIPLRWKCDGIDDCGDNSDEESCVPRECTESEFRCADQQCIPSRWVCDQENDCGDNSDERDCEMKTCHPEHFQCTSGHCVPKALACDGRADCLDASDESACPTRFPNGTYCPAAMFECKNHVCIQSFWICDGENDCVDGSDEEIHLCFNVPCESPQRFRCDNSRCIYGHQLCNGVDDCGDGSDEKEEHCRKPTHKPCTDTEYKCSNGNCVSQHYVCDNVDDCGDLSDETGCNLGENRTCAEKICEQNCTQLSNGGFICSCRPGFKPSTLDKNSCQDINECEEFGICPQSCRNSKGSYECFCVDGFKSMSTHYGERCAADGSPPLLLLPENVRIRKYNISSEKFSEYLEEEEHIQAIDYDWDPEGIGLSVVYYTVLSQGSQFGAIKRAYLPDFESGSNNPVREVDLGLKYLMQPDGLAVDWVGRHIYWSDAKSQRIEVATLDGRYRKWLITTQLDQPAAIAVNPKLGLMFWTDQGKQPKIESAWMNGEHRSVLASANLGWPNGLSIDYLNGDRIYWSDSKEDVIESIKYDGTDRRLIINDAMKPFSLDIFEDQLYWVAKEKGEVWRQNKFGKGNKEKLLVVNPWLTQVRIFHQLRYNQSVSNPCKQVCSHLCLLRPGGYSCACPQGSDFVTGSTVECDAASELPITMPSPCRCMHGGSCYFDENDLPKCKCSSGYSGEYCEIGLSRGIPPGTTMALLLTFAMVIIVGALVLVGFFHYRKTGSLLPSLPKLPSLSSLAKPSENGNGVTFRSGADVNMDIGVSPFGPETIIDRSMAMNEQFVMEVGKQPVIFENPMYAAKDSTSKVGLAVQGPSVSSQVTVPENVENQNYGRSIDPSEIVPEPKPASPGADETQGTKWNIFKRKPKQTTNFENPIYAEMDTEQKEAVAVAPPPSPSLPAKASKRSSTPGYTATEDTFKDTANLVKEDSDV

This assay has as its target mouse megalin (mouse, UniProt A2ARV4 26-4660). The assay can be described thus: cell-based or functional assay.
With B1, the “Accumulation 3 hours after i.p. injection (%): Urine (Ngal-enterochelin-55Fe3+ complex, C57BL/6 mice)” value was determined as 0.55%.
With B2 the figure was 0.18%.
With B3 the figure was 1.9%.
With B4 the figure was 0.37%; with B5, 6%.
As to B6, the “Accumulation 3 hours after i.p. injection (%): Urine (Ngal-enterochelin-55Fe3+ complex, C57BL/6 mice)” value was 2.9%.
With B7 the figure was 1.65%; with B8, 6.9%; with B9, 0.26%.
With B10 the figure was 0.3%.
For B11, the “Accumulation 3 hours after i.p. injection (%): Urine (Ngal-enterochelin-55Fe3+ complex, C57BL/6 mice)” value was 0.17%.
For B12, the “Accumulation 3 hours after i.p. injection (%): Urine (Ngal-enterochelin-55Fe3+ complex, C57BL/6 mice)” value stood at 0.05%.
With B13 the figure was 0.24%; with B14, 9.6%.
For the molecule B15, the “Accumulation 3 hours after i.p. injection (%): Urine (Ngal-enterochelin-55Fe3+ complex, C57BL/6 mice)” value turned out to be 0.11%.
With B16, the “Accumulation 3 hours after i.p. injection (%): Urine (Ngal-enterochelin-55Fe3+ complex, C57BL/6 mice)” value was found to be 0.23%.
Regarding B17, the “Accumulation 3 hours after i.p. injection (%): Urine (Ngal-enterochelin-55Fe3+ complex, C57BL/6 mice)” value amounted to 0.22%.
The figure for B18 is 0.11%; for B19 it is 0.27%.
For B20, the “Accumulation 3 hours after i.p. injection (%): Urine (Ngal-enterochelin-55Fe3+ complex, C57BL/6 mice)” value turned out to be 0.28%.
With B21 the figure was 1.23%.
Regarding B22, the “Accumulation 3 hours after i.p. injection (%): Urine (Ngal-enterochelin-55Fe3+ complex, C57BL/6 mice)” value stood at 0.51%.
Turning to B23, the “Accumulation 3 hours after i.p. injection (%): Urine (Ngal-enterochelin-55Fe3+ complex, C57BL/6 mice)” value came out at 0.1%.
